Experimental data as given in US20240301067A1 (WUXI BIOLOGICS IRELAND, published 2024).
Where a chain is given by its changes, count along the chain named. Names and notes keep the numbering of the source.

B1: W3056-AP17R1-2H2-FC(IgG4.SP) (Fc fusion)
chain: QVQLVESGGGLVQPGGSLRLSCAASDSIDSLVNMGWYRQAPGKQRELVALIANYITHYADFVKGRFTISRDAAKNTVNLQMSSLKPEDTAVYYCYARNIIVDYWGQGTQVTVSS
notes: VHH fused to Fc of human IgG4 S228P; also called W3056 lead parental antibody (VHH-Fc(hIgG4) fusion); not shown: Fc of human IgG4 (hIgG4.S228P)
B2: W3056-AP17R1-2H2-Z1-R1-14A1-FC(IgG4.SP) (Fc fusion)
chain: B1 chain with L11V, N53T, A72N, A73S, V77L, N78Y, S82N, K85R, P86A, Q109L
notes: also called W3056 lead antibody (VHH-Fc(hIgG4) fusion); not shown: Fc of human IgG4 (hIgG4.S228P)

How the values were obtained:
[1] = target: T1, Cynomolgus PD-1 extracellular domain, hFc tag (cynomolgus, UniProt B0LAJ3 25-170); test: ELISA competition on coated cynoPro1.ECD.hFc; competitor cynoProL1.ECD.hFc.biotin 2.5 µg/mL; experiment 1
T1 construct: Bought; also called cynoPro1.ECD.hFc; cyno PD-1 ECD protein
T1 sequence (B0LAJ3 entry or part of it limits assumed): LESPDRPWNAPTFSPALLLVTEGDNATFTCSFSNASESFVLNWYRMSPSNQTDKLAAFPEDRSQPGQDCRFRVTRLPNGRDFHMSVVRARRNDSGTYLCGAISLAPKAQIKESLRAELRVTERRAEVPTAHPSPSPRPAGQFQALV
Procedure: Plates were pre-coated with 1 μg/mL, 100 μL per well of cyno PD-1 ECD protein (cynoPro1.ECD.hFc) at 4° C. overnight. After 1-hour blocking using 200 μL of 1×PBS/2% BSA, constant concentration of biotinylated cyno PD-L1 (cynoProL1.ECD.hFc.biotin) (2.5 μg/mL) and various concentrations of testing antibody, positive and negative control (3-fold serially diluted from 133.4 nM to 0.007 nM) were pre-mixed and added to the plates. The plates were incubated at ambient temperature for 1 hour. The binding of ligand to the immobilized protein was detected by streptavidin-HRP. The color was developed by dispensing 100 μL of TMB substrate, and then stopped by 100 μL of 2M HCl. The absorbance was read at 450 nm and 540 nm using a microplate spectrophotometer.

[2] = target: T2, Human PD-1 extracellular domain, mFc tag (human, UniProt Q15116 25-170); test: ELISA competition on coated hPro1.ECD.mFc; competitor hPro1L2.ECD.His; experiment 1
T2 construct: extracellular domain; also called hPro1.ECD.mFc; hPD-1.ECD.mFc; not shown: mouse Fc tag at C-terminus
T2 sequence (Q15116 25-170): as the sequence (B0LAJ3 entry or part of it limits assumed) above, with E2D, A10P, L19V, A35T, R75Q, A144T counted along it
Procedure: Plates were pre-coated with 1 μg/mL, 100 μL per well of human PD-1 ECD (hPro1.ECD.mFc) at 4° C. overnight. After 1-hour blocking using 200 μL of 1×PBS/2% BSA, constant concentration of his tagged human PD-L2 ECD (hPro1L2.ECD.His) and various concentrations of testing antibodies (3-fold serially diluted from 66.7 nM to 0.003 nM) were pre-mixed and added to the plates. After 2-hour incubation at ambient temperature, the binding of the ligand to the immobilized protein was detected by HRP-labeled goat anti-His antibody. The color was developed by dispensing 100 μL of TMB substrate, and then stopped by 100 μL of 2N HCl. The absorbance was read at 450 nm and 540 nm using a microplate spectrophotometer.

[3] = target: T3, Human PD-1 on CHO-S cells (human, UniProt Q15116 25-288); test: FACS on CHO-S.hPro1.C6 cells, antibody kept 0 to 14 days in human serum at 37 C, PE goat anti-human IgG
T3 construct: whole, on cells; also called CHO-S.hPro1.C6; WBP305.CHO-S.hPro1.C6
T3 sequence (Q15116 25-288): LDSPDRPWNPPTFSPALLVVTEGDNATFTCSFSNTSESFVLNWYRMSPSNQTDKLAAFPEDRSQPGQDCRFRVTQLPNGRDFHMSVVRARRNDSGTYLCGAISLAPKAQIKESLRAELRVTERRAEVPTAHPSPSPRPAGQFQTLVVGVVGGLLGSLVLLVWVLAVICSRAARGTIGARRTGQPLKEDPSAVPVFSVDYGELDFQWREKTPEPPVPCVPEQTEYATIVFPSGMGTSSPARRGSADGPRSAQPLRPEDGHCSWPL
Procedure: The human PD-1 transfected cell line WBP305-CHO-S.hPro1.C6 cells (1×10⁵ cells/well) were incubated with various concentrations of serum treated W3056 anti-PD-1 antibodies (3-fold serially diluted from 129.9 nM to 0.0007 nM) at 4° C. for 1 hour. After washing with 1×PBS/1% BSA, the secondary antibody PE-labeled goat anti-human IgG was applied and incubated with cells at 4° C. for 1 hour. Human IgG4 isotype antibody was used as negative control. The cells were then washed and resuspended in 1×PBS/1% BSA. MFI of the cells was measured by a flow cytometer (BD) and analyzed by FlowJo.

[4] = target: T4, Cynomolgus monkey PD-1 on transiently transfected 293F cells (cynomolgus monkey); test: FACS on cyno PD-1 transfected 293F cells, experiment 2
T4 construct: whole, on cells; also called cell surface cynomolgus PD-1; cyno PD-1
Procedure: Cynomolgus monkey PD-1 (GenBank Accession No. NP_001271065.1) transient transfected 293F cells (2×10⁵ cells/well) were incubated with various concentrations of anti-PD-1 antibodies (3-fold serially diluted from 133.4 nM to 0.008 nM) at 4° C. for 1 hour. After washing with 1×PBS/1% BSA, the secondary antibody PE-labeled goat anti-human IgG was applied and incubated with cells at 4° C. for 1 hour. Anti-human PD-1 antibodies BMK1 and BMK3 were used as positive control. Human IgG4 isotype antibody was used as negative control. The cells were then washed and re-suspended in 1×PBS/1% BSA. MFI of the cells was measured by a flow cytometer and analyzed by FlowJo (version 7.6.1).

[5] = target: T3, Human PD-1 on CHO-S cells; test: FACS competition with biotinylated BMK3 (1 ug/mL) on CHO-S.hPro1.C6 cells, SA-PE
Procedure: The human PD-1 transfected cells CHO-S.hPro1.C6 were transferred into 96-well U-bottom plates at a density of 1˜2×10⁵ cells/well. Serial dilutions of testing antibodies (4-fold serially diluted from 133.3 nM to 0.008 nM) were mixed with constant concentration of biotinylated BMK1 (1 μg/mL) or biotinylated BMK3 (1 μg/mL), respectively. Then the mixture was added to the cells in 96-well plates and incubated at 4° C. for 1 hour. After washing with 1×PBS/1% BSA, the secondary antibody SA-PE was applied and incubated with cells at 4° C. for 1 hour. The cells were then washed and resuspended in 1×PBS/1% BSA. MFI of the cells was measured by a flow cytometer and analyzed by FlowJo. Data were shown FIG. 9.

Binder	IC50 [1] [nM]	IC50 [2] [nM]	EC50 (read off the curve) [3] [nM]	EC50 [4] [nM]	IC50 (read off the curve) [5] [nM]
B1	1.3	2.02	–	–	–
B2	–	–	1 to 2	1.98	~20
